Measured values: article PMC4493018, “A Unique Human Norovirus Lineage with a Distinct HBGA Binding Interface” (PLoS Pathogens, 2015)

Legend:
OIF P particle = biological target: T1, OIF P particle (Norovirus NLV/IF1998/2003/Iraq, UniProt Q6B7R3); experiment: ELISA, oligosaccharide coated on plate; type: binding; settings: P particles 10 μg/ml, coated synthetic oligosaccharide 2 μg/ml (polyvalent PAA conjugate in the blocking assay), 37 °C
T1 construct: P domain self-assembled to P particles of 830 kDa; GST fusion from E. coli BL21, GST cut off with thrombin

[1] = biological target: T2, OIF P domain (GII.21 OIF virus P dimer) (Norovirus NLV/IF1998/2003/Iraq, UniProt Q6B7R3); experiment: X-ray co-crystal structure, […] Å; settings: co-crystallised without glycerol; 10 mM ligand; new HBGA site of B-, N- and T-loops; beta-Gal is major binding saccharide
T2 construct: P domain, residues 220-527, pGEX-6P-1 GST fusion in E. coli BL21(DE3), GST cut off with PreScission protease; dimer

[2] = biological target: P domain of the GII.21 OIF (Operation Iraqi Freedom) norovirus capsid protein VP1 (human norovirus GII.21 OIF virus); experiment: crystal structure
[3] = biological target: A antigen oligosaccharide; experiment: plate binding assay with coated oligosaccharides (OD450 read-out); settings: P particles 10 μg/ml; oligosaccharides for plate coating at 2 μg/ml; parent: est. 0.04; read off a plot
Lea oligosaccharide = experiment: as above; settings: P particles 10 μg/ml; oligosaccharides for plate coating at 2 μg/ml; parent: est. 0.85; read off a plot

CC(=O)N[C@H]1C(O)O[C@H](CO)[C@@H](O[C@@H]2O[C@@H](C)[C@@H](O)[C@@H](O)[C@@H]2O)[C@@H]1O[C@@H]1O[C@H](CO)[C@H](O)[C@H](O)[C@H]1O (stereo partly drawn) [Le^a trisaccharide, β-Gal-(1,3)-(α-Fuc-(1,4))- GlcNAc] was tested, and the “ELISA, oligosaccharide coated on plate” value (OIF P particle) was “wild type P particle of OIF virus that binds strongly to Le^a oligosaccharide” and the “X-ray co-crystal structure, 2.00 Å” value [1] was “we co-crystallized the OIF P domain with Le^a trisaccharide”.

Molecule “P domain of the GII.21 OIF (Operation Iraqi Freedom) norovirus capsid protein VP1 (domain or fragment)” has a stoichiometry N [2] of 2.

wild type P particle of OIF virus D294A was tested, and the response [3] was 0.07 OD450 and the response (Lea oligosaccharide) was 0.32 OD450.

Molecule wild type P particle of OIF virus E358A has a response [3] of 0.08 OD450.
